Data from PMC3492541 (Nature structural & molecular biology, 2012).

B1: GST 7D (GST tail phosphomimetic in both zone 1 and zone 2) (domain or fragment, human, UniProt O14777 1-80, looked up)
chain: MKRSDVSDGGAGRLDMQELRSQDVNKQGLYTPQTKEKPTFGKLDINKPTSERKVDLFGKRTDGHGSRNDQLGIFSSSEKI
B2: GST tail phosphomimetic in zone 2 (domain or fragment, human, UniProt O14777 1-80, looked up)
chain: MKRSDVSDGGAGRLDMQELRSQDVNKQGLYTPQTKEKPTFGKLSINKPTSERKVSLFGKRTSGHGSRNSQLGIFSSSEKI
B3: GST 4D (GST tail phosphomimetic in zone 1) (domain or fragment, human, UniProt O14777 1-80, looked up)
chain: MKRSSVSSGGAGRLSMQELRSQDVNKQGLYTPQTKEKPTFGKLDINKPTSERKVDLFGKRTDGHGSRNDQLGIFSSSEKI

Target: taxol-stabilized microtubules (UniProt Q6B856 1-439)
Assay: co-sedimentation

Going from B1 to B2, the “reduction of microtubule binding relative to GST 1–80” value falls from 80% to 20%.

With B3 the “reduction of microtubule binding relative to GST 1–80” value was 60%.
